Measured values as given in patent US20120294860A1 (TORAY INDUSTRIES, published 2012).
Values belong to the binder of their own block, whether it stands above or below them.

Molecular target: T1, human CAPRIN-1 protein expressed on the surface of human cancer cells (human, UniProt Q14444 2-709)
T1 sequence: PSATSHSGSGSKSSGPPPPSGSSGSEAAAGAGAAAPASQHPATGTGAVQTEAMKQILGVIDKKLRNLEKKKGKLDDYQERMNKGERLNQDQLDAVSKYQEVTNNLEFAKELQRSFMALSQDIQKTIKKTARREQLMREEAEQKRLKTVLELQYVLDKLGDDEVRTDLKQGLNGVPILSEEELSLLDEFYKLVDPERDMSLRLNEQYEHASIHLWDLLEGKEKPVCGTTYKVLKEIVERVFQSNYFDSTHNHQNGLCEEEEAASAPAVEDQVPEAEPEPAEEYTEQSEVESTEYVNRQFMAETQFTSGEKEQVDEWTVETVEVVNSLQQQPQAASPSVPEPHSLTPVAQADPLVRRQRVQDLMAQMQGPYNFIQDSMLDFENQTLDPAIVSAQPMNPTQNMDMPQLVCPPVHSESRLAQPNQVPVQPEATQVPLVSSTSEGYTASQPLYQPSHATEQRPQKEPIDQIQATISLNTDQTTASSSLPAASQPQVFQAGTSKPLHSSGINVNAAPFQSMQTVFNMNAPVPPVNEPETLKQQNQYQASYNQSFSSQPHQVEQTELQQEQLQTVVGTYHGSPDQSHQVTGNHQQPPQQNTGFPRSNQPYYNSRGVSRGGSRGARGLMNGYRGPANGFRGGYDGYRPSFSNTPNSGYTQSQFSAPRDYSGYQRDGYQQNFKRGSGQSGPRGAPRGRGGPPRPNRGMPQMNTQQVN
Test: cell-based or functional assay

B1: anti-CAPRIN-1 monoclonal antibody #7 (antibody, V domains shown)
VH: LQESGAELARPGASVKLSCKASGYTFTSYWMQWVKQRPGQGLEWIGAIYPGDGDTRYTQKFKGKATLTADKSSSTAYMQLSSLASEDSAVYYCARGEYGNYFAYWGQGTTVTVSS
VL: TSDASLGERVTITCKASQDINSYLSWFQQKPGKSPKTLIYRANRLVDGVPSRFSGSGSGQDYSLTISSLEYEDMGIYYCLQYDEFPLTFGGGTKLEIKQ
ADCC activity against MDA-MB-157: ≥ 20% | CDC activity against MDA-MB-231V: ≥ 30%

B3: anti-CAPRIN-1 monoclonal antibody #4 (antibody, V domains shown)
VH: EVQLHQFGAELVKPGASVKISCKASGYTFTDYNMDWVKQSHGKSLEWIGDINPNYDSTSYNQKFKGKATLTVDKSSSTAYMELRSLTSEDTAVYYCARSRSYDYEGFAYWGQGTLVTVSA
VL: SGDRVSLSCRASQSISNYLHWYQQKSHESPRLLIKYASQSISGIPSRFSGSGSGTDFTLSINSVETEDFGMYFCQQSNSWPYTFGAGTKLEIKQ
ADCC activity against MDA-MB-157: ≥ 20% | CDC activity against MDA-MB-231V: ≥ 30%

Further lines, results first:

ADCC activity against MDA-MB-157: ≥ 20% | CDC activity against MDA-MB-231V: ≥ 30%
B2: anti-CAPRIN-1 monoclonal antibody #1 (antibody, V domains shown)
VH: B3 VH
VL: DIQMTQSPASLSASVGETVTITCRASGNIHNYLAWYQQKQGKSPQLLVYNAKTLADGVPSRFSGSGSGTQYSLKINSLQPEDFGSYYCQHFWSTLTFGAGTKLELKR

ADCC activity against MDA-MB-157: ≥ 20% | CDC activity against MDA-MB-231V: ≥ 30%
B4: anti-CAPRIN-1 monoclonal antibody #3 (antibody, V domains shown)
VH: B3 VH
VL: DIQLTQSPASLSASVGETVTITCRASGNIHNYLAWYQQKQGKSPQLLVYNAKTLADGVPSRFSGSGSGTQYSLKINSLQPEDFGSYYCQHFWSTLTFGGGTKLEIK
